# According to patent publication US20150368338A1 (Janssen / Centocor, published 2015):
# Residue numbers refer to the chain shown, from its start.
# B1: IFWM3391 (antibody, IgG1, V domains shown)
# VH: EVQLVQSGAEVKKPGESLKISCKGSGYSFTSYWIGWVRQMPGKGLEWMGIIDPSDSDTRYSPSFQGQVTISADKSISTAYLQWSSLKASDTAMYYCARHPGLAWAPDFDYWGQGTLVTVSS
# VL: DIQMTQSPSSLSASVGDRVTITCRASQSINNFLNWYQQKPGKAPKLLIYFASSLQSGVPSRFSGSGSGTDFTLTISSLQPEDFATYYCQQSFNLPITFGQGTKVEIK
# notes: mAb; IgG1/kappa said of the parent and of selected mAbs; also called IFWB3126
# B2: IFWM3418 (antibody, IgG1, V domains shown)
# VH: B1 VH with A103N
# VL: B1 VL with N30A, N31G, F50Y, F92Y, N93S, L94I
# notes: mAb; IgG1/kappa said of the parent and of selected mAbs; also called IFWB3153
# B3: IFWM3370 (antibody, IgG1, V domains shown)
# VH: B1 VH with R59A, A103N
# VL: DIQMTQSPSSLSASVGDRVTITCRASQSIDNSYLNWYQQKPGKAPKLLIYGASSLQSGVPSRFSGSGSGTDFTLTISSLQPEDFATYYCQQGWDWPLTFGQGTKVEIK
# notes: mAb; IgG1/kappa said of the parent and of selected mAbs; also called IFWB3105
# B4: IFWM3394 (antibody, IgG1, V domains shown)
# VH: B1 VH
# VL: B1 VL with N31E, F92Y, N93S, L94T, I96L
# notes: mAb; IgG1/kappa said of the parent and of selected mAbs; also called IFWB3129
# B5: IFWM3376 (antibody, IgG1, V domains shown)
# VH: B1 VH with R59A, A103N
# VL: B3 VL with D30S, Y33N, Y50H, G51W, G92W, W93Y, W95H
# notes: mAb; IgG1/kappa said of the parent and of selected mAbs; also called IFWB3111
# B6: IFWM3398 (antibody, IgG1, V domains shown)
# VH: B1 VH
# VL: B1 VL with N31G, F32V, F92H, N93D, L94F, I96L
# notes: mAb; IgG1/kappa said of the parent and of selected mAbs; also called IFWB3133
# B7: IFWM3419 (antibody, IgG1, V domains shown)
# VH: B1 VH
# VL: B1 VL with N30A, N31G, F50Y, F92Y, N93S, L94I
# notes: mAb; IgG1/kappa said of the parent and of selected mAbs; also called IFWB3154
# B8: IFWM3393 (antibody, IgG1, V domains shown)
# VH: B1 VH
# VL: B1 VL with N30T, N31S, F32S, N93D, I96L
# notes: mAb; IgG1/kappa said of the parent and of selected mAbs; also called IFWB3128
# B9: IFWM3407 (antibody, IgG1, V domains shown)
# VH: B1 VH
# VL: B3 VL with D30R, S32N, Y33N, Y50H, G51W, W93Y, W95T, L97F
# notes: mAb; IgG1/kappa said of the parent and of selected mAbs; also called IFWB3142
# B10: IFWM3372 (antibody, IgG1, V domains shown)
# VH: B1 VH with R59A, A103N
# VL: B3 VL with S32N, Y33N, G51A, W93Y
# notes: mAb; IgG1/kappa said of the parent and of selected mAbs; also called IFWB3107
# B11: IFWM3378 (antibody, IgG1, V domains shown)
# VH: B1 VH with R59A, A103N
# VL: B3 VL with D30A, S32N, Y33D, Y50H, G51W, G92D, W93Y
# notes: mAb; IgG1/kappa said of the parent and of selected mAbs; also called IFWB3113
# B12: IFWM3377 (antibody, IgG1, V domains shown)
# VH: B1 VH with R59A, A103N
# VL: B3 VL with D30R, S32T, Y33N, Y50H, G51W, W93Y, W95T, L97F
# notes: mAb; IgG1/kappa said of the parent and of selected mAbs; also called IFWB3112
# B13: IFWM3392 (antibody, IgG1, V domains shown)
# VH: B1 VH
# VL: B1 VL with N30D, N31R, F32A, N93D, L94F, I96L
# notes: mAb; IgG1/kappa said of the parent and of selected mAbs; also called IFWB3127
# B14: IFWM3396 (antibody, IgG1, V domains shown)
# VH: B1 VH
# VL: B1 VL with N30S, N31E, F32Y, F92H, N93S
# notes: mAb; IgG1/kappa said of the parent and of selected mAbs; also called IFWB3131
# B15: IFWM3371 (antibody, IgG1, V domains shown)
# VH: B1 VH with R59A, A103N
# VL: B3 VL with D30A, S32T, Y33N, Y50H, G51W, G92W, W93Y, W95N
# notes: mAb; IgG1/kappa said of the parent and of selected mAbs; also called IFWB3106
# B16: IFWM3403 (antibody, IgG1, V domains shown)
# VH: B1 VH
# VL: B1 VL with N30R, F32S, Y49K, F50W, S91L, F92Y, N93D, L94W, I96L
# notes: mAb; IgG1/kappa said of the parent and of selected mAbs; also called IFWB3138
# B17: IFWM3420 (antibody, IgG1, V domains shown)
# VH: B1 VH with R59A, A103N
# VL: B1 VL with N30A, N31G, F50Y, F92Y, N93S, L94I
# notes: mAb; IgG1/kappa said of the parent and of selected mAbs; also called IFWB3155
# B18: IFWM3395 (antibody, IgG1, V domains shown)
# VH: B1 VH
# VL: B1 VL with N30S, N31K, F92Y, N93D, L94F
# notes: mAb; IgG1/kappa said of the parent and of selected mAbs; also called IFWB3130
# B19: IFWM3397 (antibody, IgG1, V domains shown)
# VH: B1 VH
# VL: B1 VL with N30T, N31G, F50A, F92H, N93D, L94F, I96L
# notes: mAb; IgG1/kappa said of the parent and of selected mAbs; also called IFWB3132
# B20: IFWM3375 (antibody, IgG1, V domains shown)
# VH: B1 VH with R59A, A103N
# VL: B3 VL with D30R, S32N, G51A, W93Y, W95T
# notes: mAb; IgG1/kappa said of the parent and of selected mAbs; also called IFWB3110
# Target: T1, IFN-αG (human, UniProt P01569 24-189)
# T1 construct: Recombinant, HEK293; also called IFN-α5
# Experiment: ProteOn SPR, cell supernatant;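 also: each binding measurement used just a single antigen concentration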
# Excerpt: (§1) To increase the assay throughput, only one concentration of the individual antigen was used.
row,Binder,Kd
1,B1,0.044 nM
2,B2,0.178 nM
3,B3,0.021 nM
4,B4,0.091 nM
5,B5,0.048 nM
6,B6,0.022 nM
7,B7,0.081 nM
8,B8,0.064 nM
9,B9,0.027 nM
10,B10,0.103 nM
11,B11,0.15 nM
12,B12,0.038 nM
13,B13,0.019 nM
14,B14,0.061 nM
15,B15,0.05 nM
16,B16,0.027 nM
17,B17,0.037 nM
18,B18,0.063 nM
19,B19,0.043 nM
20,B20,0.035 nM

# Target: T2, IFN-α4a (human, UniProt P05014 24-189)
# T2 construct: Recombinant, HEK293; also called IFN-αM1
# Experiment: ProteOn SPR, cell supernatant;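 also: each binding measurement used just a single antigen concentration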
# Excerpt: as §1
row,Binder,Kd
1,B1,0.117 nM
2,B2,1.16 nM
3,B3,0.155 nM
4,B4,0.105 nM
5,B5,0.113 nM
6,B6,0.061 nM
7,B7,0.582 nM
8,B8,0.166 nM
9,B9,0.128 nM
10,B10,0.432 nM
11,B11,0.533 nM
12,B12,0.193 nM
13,B13,0.058 nM
14,B14,0.079 nM
15,B15,0.1 nM
16,B16,0.062 nM
17,B17,0.475 nM
18,B18,0.279 nM
19,B19,0.119 nM
20,B20,0.067 nM

# Target: T3, IFN-αWA (human, UniProt P05015 24-189)
# T3 construct: Recombinant, HEK293; also called IFN-α16
# Experiment: ProteOn SPR, cell supernatant;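 also: each binding measurement used just a single antigen concentration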
# Excerpt: as §1
row,Binder,Kd
1,B1,0.042 nM
2,B2,0.493 nM
3,B3,0.041 nM
4,B4,0.049 nM
5,B5,0.062 nM
6,B6,0.03 nM
7,B7,0.193 nM
8,B8,0.078 nM
9,B9,0.06 nM
10,B10,0.272 nM
11,B11,0.248 nM
12,B12,0.12 nM
13,B13,0.025 nM
14,B14,0.068 nM
15,B15,0.064 nM
16,B16,0.023 nM
17,B17,0.124 nM
18,B18,0.063 nM
19,B19,0.062 nM
20,B20,0.031 nM

# Target: T4, human IFN-ω (human, UniProt P05000 24-195)
# T4 construct: Recombinant, HEK293; also called interferon omega
# Experiment: ProteOn SPR, cell supernatant;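 also: each binding measurement used just a single antigen concentration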
# Excerpt: as §1
row,Binder,Kd
1,B1,0.023 nM
2,B2,0.089 nM
3,B3,0.01 nM
4,B4,0.045 nM
5,B5,0.02 nM
6,B6,0.026 nM
7,B7,0.086 nM
8,B8,0.057 nM
9,B9,0.017 nM
10,B10,0.049 nM
11,B11,0.075 nM
12,B12,0.027 nM
13,B13,0.023 nM
14,B14,0.011 nM
15,B15,0.018 nM
16,B16,0.007 nM
17,B17,0.036 nM
18,B18,0.019 nM
19,B19,0.025 nM
20,B20,0.019 nM

# Target: T5, IFN-αJ1 (human, UniProt P01567 24-189)
# T5 construct: Recombinant, HEK293; also called IFN-α7
# Experiment: ProteOn SPR, cell supernatant;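 also: each binding measurement used just a single antigen concentration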
# Excerpt: as §1
row,Binder,Kd
1,B1,0.066 nM
2,B2,0.656 nM
3,B3,0.225 nM
4,B4,0.077 nM
5,B5,0.14 nM
6,B6,0.044 nM
7,B7,0.399 nM
8,B8,0.096 nM
9,B9,0.058 nM
10,B10,0.69 nM
11,B11,0.496 nM
12,B12,0.192 nM
13,B13,0.021 nM
14,B14,0.037 nM
15,B15,0.125 nM
16,B16,0.059 nM
17,B17,0.299 nM
18,B18,0.181 nM
19,B19,0.078 nM
20,B20,0.045 nM

# Target: T6, IFN-αF (human, UniProt P01568 24-189)
# T6 construct: Recombinant, HEK293; also called IFN-α21
# T6 chain: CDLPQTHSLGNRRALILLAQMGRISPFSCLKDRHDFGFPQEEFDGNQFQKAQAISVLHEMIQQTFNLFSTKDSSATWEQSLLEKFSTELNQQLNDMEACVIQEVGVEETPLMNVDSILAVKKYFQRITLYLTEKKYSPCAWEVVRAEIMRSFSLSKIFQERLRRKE
# Experiment: ProteOn SPR, cell supernatant;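 also: each binding measurement used just a single antigen concentration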
# Excerpt: as §1
row,Binder,Kd
1,B1,0.025 nM
2,B2,0.229 nM
3,B3,0.039 nM
4,B4,0.063 nM
5,B5,0.039 nM
6,B6,0.017 nM
7,B7,0.158 nM
8,B8,0.041 nM
9,B9,0.033 nM
10,B10,0.116 nM
11,B11,0.168 nM
12,B12,0.051 nM
13,B13,0.014 nM
14,B14,0.007 nM
15,B15,0.05 nM
16,B16,0.027 nM
17,B17,0.118 nM
18,B18,0.102 nM
19,B19,0.028 nM
20,B20,0.023 nM

# Target: T7, IFN-αC (human, UniProt P01566 24-189)
# T7 construct: Recombinant, HEK293; also called IFN-α10
# Experiment: ProteOn SPR, cell supernatant
# Excerpt: as §1
row,Binder,Kd
1,B1,0.016 nM
2,B2,0.191 nM
3,B3,0.039 nM
4,B4,0.063 nM
5,B5,0.034 nM
6,B6,0.017 nM
7,B7,0.126 nM
8,B8,0.049 nM
9,B9,0.032 nM
10,B10,0.094 nM
11,B11,0.172 nM
12,B12,0.044 nM
13,B13,0.016 nM
14,B14,0.005 nM
15,B15,0.043 nM
16,B16,0.025 nM
17,B17,0.113 nM
18,B18,0.116 nM
19,B19,0.027 nM
20,B20,0.022 nM
